Experimental data taken from US7141656.
Blank lines part the entries; values can stand above or below the molecule they belong to.

What was measured:
[1] = target: full-length murine I-A^d/OVA 323-339 MHC class II fusion complex (pJRS165.1) expressed on NSO cells (mouse; chicken) (UniProt P04228); test: flow cytometry, FITC-conjugated isotype matched irrelevant antibody 1:100, clone NSO/IA^d/OVA.B5
[2] = target: full-length murine I-A^d/OVA 323-339 MHC class II fusion complex (pJRS165.1) expressed on NSO cells (mouse; chicken) (UniProt P04228); test: flow cytometry, FITC-conjugated isotype matched irrelevant antibody 1:100, clone NSO/IA^d/OVA.B2
[3] = target: full-length murine I-A^d/OVA 323-339 MHC class II fusion complex (pJRS165.1) expressed on NSO cells (mouse; chicken) (UniProt P04228); test: flow cytometry, FITC-conjugated isotype matched irrelevant antibody 1:100, clone NSO/IA^d/OVA.B4
[4] = target: full-length murine I-A^d/OVA 323-339 MHC class II fusion complex (pJRS165.1) expressed on NSO cells (mouse; chicken) (UniProt P04228); test: flow cytometry, FITC-conjugated isotype matched irrelevant antibody 1:100, clone NSO/IA^d/OVA.A4
[5] = target: murine class II MHC molecule I-A^d on A20.1-11 cells (mouse) (UniProt P04228); test: flow cytometry, FITC-conjugated isotype matched irrelevant antibody 1:100, A20.1 cells (+ control)
[6] = target: soluble single-chain I-A^d-OVA with EE antibody tag (SCE1 gene), secreted by transfected NSO cells (mouse (I-A^d); chicken (OVA peptide)); test: sandwich I-A^d ELISA of Example 18 (M5/114 capture, biotinylated AMS-32.1 probe); undiluted supernatant of E11 (SCE1 transfectant)
[7] = target: soluble single-chain I-A^d-OVA with EE antibody tag (SCE1 gene), secreted by transfected NSO cells (mouse (I-A^d); chicken (OVA peptide)); test: sandwich I-A^d ELISA of Example 18 (M5/114 capture, biotinylated AMS-32.1 probe); undiluted supernatant of E10 (SCE1 transfectant)
[8] = target: soluble single-chain I-A^d-OVA (SSC1 gene; 6xHis tag), produced in SF9 insect cells (mouse (I-A^d); chicken (OVA peptide)); test: sandwich I-A^d ELISA, M5/114 capture, biotinylated AMS-32.1 probe, 405 nm; cotransfection supernatant diluted 1:2
[9] = target: soluble single-chain I-A^d-OVA (SSC1 gene; 6xHis tag), produced in SF9 insect cells (mouse (I-A^d); chicken (OVA peptide)); test: sandwich I-A^d ELISA, M5/114 capture, biotinylated AMS-32.1 probe; supernatant of virus clone F8
[10] = target: soluble single-chain I-A^d-OVA (SSC1 gene; 6xHis tag), produced in SF9 insect cells (mouse (I-A^d); chicken (OVA peptide)); test: sandwich I-A^d ELISA, M5/114 capture, biotinylated AMS-32.1 probe, 405 nm; cotransfection supernatant undiluted
[11] = target: soluble single-chain I-A^d-OVA (SSC1 gene; 6xHis tag), produced in SF9 insect cells (mouse (I-A^d); chicken (OVA peptide)); test: sandwich I-A^d ELISA, M5/114 capture, biotinylated AMS-32.1 probe, 405 nm; cotransfection supernatant diluted 1:4
[12] = target: membrane-bound single-chain I-A^d-OVA (SCT1 gene, with the alpha chain transmembrane domain) on transfected NS-0 cells (mouse (I-A^d); chicken (OVA peptide)); test: flow cytometry, FITC-conjugated AMS 32.1 1:100, T6 (SCT1-transfectant) cells
[13] = target: soluble single-chain I-A^d-OVA (SSC1 gene; 6xHis tag), produced in SF9 insect cells (mouse (I-A^d); chicken (OVA peptide)); test: sandwich I-A^d ELISA of Example 18 (M5/114 capture, biotinylated AMS-32.1 probe); sc I-A^d-OVA from insect cell culture (positive control)
[14] = target: soluble single-chain I-A^d-OVA (SSC1 gene; 6xHis tag), produced in SF9 insect cells (mouse (I-A^d); chicken (OVA peptide)); test: sandwich I-A^d ELISA, M5/114 capture, biotinylated AMS-32.1 probe, 405 nm; cotransfection supernatant diluted 1:8
[15] = target: membrane-bound single-chain I-A^d-OVA (SCT1 gene, with the alpha chain transmembrane domain) on transfected NS-0 cells (mouse (I-A^d); chicken (OVA peptide)); test: flow cytometry, FITC-conjugated AMS 32.1 1:100, T2 (SCT1-transfectant) cells
[16] = target: Neuron Specific Enolase (NSE), in supernatant of SF9 cells infected with a recombinant Baculovirus; test: sandwich I-A^d ELISA, M5/114 capture, biotinylated AMS-32.1 probe; supernatant of SF9 cells infected with NSE Baculovirus
[17] = target: membrane-bound single-chain I-A^d-OVA (SCT1 gene, with the alpha chain transmembrane domain) on transfected NS-0 cells (mouse (I-A^d); chicken (OVA peptide)); test: flow cytometry, FITC-conjugated AMS 32.1 1:100, T12 (SCT1-transfectant) cells
[18] = target: soluble single-chain I-A^d-OVA (SSC1 gene; 6xHis tag), produced in SF9 insect cells (mouse (I-A^d); chicken (OVA peptide)); test: sandwich I-A^d ELISA, M5/114 capture, biotinylated AMS-32.1 probe; supernatant of virus clone C6
[19] = target: membrane-bound single-chain I-A^d-OVA (SCT1 gene, with the alpha chain transmembrane domain) on transfected NS-0 cells (mouse (I-A^d); chicken (OVA peptide)); test: flow cytometry, FITC-conjugated 10-3.6 1:100 (negative control), T6 (SCT1-transfectant) cells
[20] = target: membrane-bound single-chain I-A^d-OVA (SCT1 gene, with the alpha chain transmembrane domain) on transfected NS-0 cells (mouse (I-A^d); chicken (OVA peptide)); test: flow cytometry, FITC-conjugated 10-3.6 1:100 (negative control), T2 (SCT1-transfectant) cells
[21] = target: membrane-bound single-chain I-A^d-OVA (SCT1 gene, with the alpha chain transmembrane domain) on transfected NS-0 cells (mouse (I-A^d); chicken (OVA peptide)); test: flow cytometry, FITC-conjugated 10-3.6 1:100 (negative control), T12 (SCT1-transfectant) cells
[22] = target: T cell receptor of the murine T cell hybridoma DO11.10 (specific for OVA 323-339 in the context of I-A^d) (mouse); test: cell-based or functional assay

peak channel fluorescence [1]: 10 | peak channel fluorescence [2]: 14 | peak channel fluorescence [3]: 11 | peak channel fluorescence [4]: 34 | peak channel fluorescence [5]: 5
Molecule: FITC-conjugated anti-IA^k antibody (Pharmingen), isotype matched irrelevant antibody, Example 13

IL-2 concentration in DO11 super (U/ml) at 39 ng/well immobilized scIA^d-OVA, extended dilution [22]: 0 U/ml | IL-2 concentration in DO11 super (U/ml) at 78 ng/well immobilized sc IA^d-OVA [22]: 45 U/ml | IL-2 concentration in DO11 super (U/ml) at 78 ng/well immobilized scIA^d-OVA, extended dilution [22]: 17 U/ml | IL-2 concentration in DO11 super (U/ml) at 156 ng/well immobilized sc IA^d-OVA [22]: 100 U/ml | IL-2 concentration in DO11 super (U/ml) at 156 ng/well immobilized scIA^d-OVA, extended dilution [22]: 24 U/ml | IL-2 concentration in DO11 super (U/ml) at 312 ng/well immobilized sc IA^d-OVA [22]: 109 U/ml | IL-2 concentration in DO11 super (U/ml) at 312 ng/well immobilized scIA^d-OVA, extended dilution [22]: 35 U/ml | IL-2 concentration in DO11 super (U/ml) at 625 ng/well immobilized sc IA^d-OVA [22]: 116 U/ml | IL-2 concentration in DO11 super (U/ml) at 625 ng/well immobilized scIA^d-OVA, extended dilution [22]: 38 U/ml | IL-2 concentration in DO11 super (U/ml) at 1250 ng/well immobilized sc IA^d-OVA [22]: 126 U/ml | IL-2 concentration in DO11 super (U/ml) at 2500 ng/well immobilized sc IA^d-OVA [22]: 143 U/ml | IL-4 concentration in DO11 super (U/ml) at 78 ng/well immobilized sc IA^d-OVA [22]: 7 U/ml | IL-4 concentration in DO11 super (U/ml) at 156 ng/well immobilized sc IA^d-OVA [22]: 10 U/ml | IL-4 concentration in DO11 super (U/ml) at 312 ng/well immobilized sc IA^d-OVA [22]: 16 U/ml | IL-4 concentration in DO11 super (U/ml) at 625 ng/well immobilized sc IA^d-OVA [22]: 15 U/ml | IL-4 concentration in DO11 super (U/ml) at 1250 ng/well immobilized sc IA^d-OVA [22]: 20 U/ml | IL-4 concentration in DO11 super (U/ml) at 2500 ng/well immobilized sc IA^d-OVA [22]: 23 U/ml | IL-r [IL-4] concentration in DO11 super (U/ml) at 39 ng/well immobilized scIA^d-OVA, extended dilution [22]: 0 U/ml | IL-r [IL-4] concentration in DO11 super (U/ml) at 78 ng/well immobilized scIA^d-OVA, extended dilution [22]: 0.8 U/ml | IL-r [IL-4] concentration in DO11 super (U/ml) at 156 ng/well immobilized scIA^d-OVA, extended dilution [22]: 0.9 U/ml | IL-r [IL-4] concentration in DO11 super (U/ml) at 312 ng/well immobilized scIA^d-OVA, extended dilution [22]: 1.5 U/ml | IL-r [IL-4] concentration in DO11 super (U/ml) at 625 ng/well immobilized scIA^d-OVA, extended dilution [22]: 2 U/ml
B2: soluble single-chain I-A^d-OVA (SSC1 gene; 6xHis tag), produced in SF9 insect cells (peptide-MHC)
chain: TMALQIPSLLLSAAVVVLMVLSSPRTLSISQAVHAAHAEINEAGRASGGGGSGGGGNSERHFVVQFKGECYYTNGTQRIRLVTRYIYNREEYVRYDSDVGEYRAVTELGRPDAEYWNSQPEILERTRAEVDTACRHNYEGPETSTSLRRLEQPNVAISLSRTEALNHHNTLVCSVTDFYPAKIKVRWFRNGQEETVGVSSTQLIRNGDWTFQVLVMLEMTPHQGEVYTCHVEHPSLKSPITVEWTSGGGGSGGGGSGGGGSGGGGSSSEDDIEADHVGFYGTTVYQSPGDIGQYTHEFDGDELFYVDLDKKKTVWRLPEFGQLILFEPQGGLQNIAAEKHNLGILTKRSNFTPATNEAPQATVFPKSPVLLGQPNTLICFVDNIFPPVINITWLRNSKSVTDGVYETSFLVNRDHSFHKLSYLTFIPSDDDIYDCKVEHWGLEEPVLKHWSRASHHHHHH

Continued, molecule first:

Molecule: AMS-32.1 anti-IA^d monoclonal antibody (PharMingen)
Absorbance [6]: 0.96 | Absorbance [7]: 0.781 | Absorbance [8]: 0.524 | Absorbance [9]: 1.45 | Absorbance [10]: 0.857 | Absorbance [11]: 0.305 | Mean Fluorescence [12]: 418 | Absorbance [13]: 2.44 | Absorbance [14]: 0.165 | Mean Fluorescence [15]: 613 | Absorbance [16]: 0.098 | Mean Fluorescence [17]: 911 | Absorbance [18]: 1.56

Molecule: 10-3.6 anti-I-A^k antibody (PharMingen), isotype matched negative control
Mean Fluorescence [19]: 45.1 | Mean Fluorescence [20]: 22 | Mean Fluorescence [21]: 45.9

B1: membrane-bound single-chain I-A^d-OVA (SCT1 gene, with the alpha chain transmembrane domain) on transfected NS-0 cells (peptide-MHC)
chain: TMALQIPSLLLSAAVVVLMVLSSPRTLSISQAVHAAHAEINEAGRASGGGGSGGGGNSERHFVVQFKGECYYTNGTQRIRLVTRYIYNREEYVRYDSDVGEYRAVTELGRPDAEYWNSQPEILERTRAEVDTACRHNYEGPETSTSLRRLEQPNVAISLSRTEALNHHNTLVCSVTDFYPAKIKVRWFRNGQEETVGVSSTQLIRNGDWTFQVLVMLEMTPHQGEVYTCHVEHPSLKSPITVEWTSGGGGSGGGGSGGGGSGGGGSSSEDDIEADHVGFYGTTVYQSPGDIGQYTHEFDGDELFYVDLDKKKTVWRLPEFGQLILFEPQGGLQNIAAEKHNLGILTKRSNFTPATNEAPQATVFPKSPVLLGQPNTLICFVDNIFPPVINITWLRNSKSVTDGVYETSFLVNRDHSFHKLSYLTFIPSDDDIYDCKVEHWGLEEPVLKHWEPEIPAPMSELTETVVCALGLSVGLVGIVVGTIFIIQGLRSGGTSRHPGPL
IL-2 ELISA result (Absorbance), DO11.10 with T2 (SCT1 transfectant) cells [22]: 0.758 | IL-2 ELISA result (Absorbance), DO11.10 with T6 (SCT1 transfectant) cells [22]: 0.307 | IL-2 ELISA result (Absorbance), DO11.10 with T12 (SCT1 transfectant) cells [22]: 1.03
